Values quoted from earlier work in publication PMC6997106.

Target: RAGE V-domain V-domain (Homo sapiens) (UniProt Q15109)
Test: SPR

Chain of S100B (P04271 2-92): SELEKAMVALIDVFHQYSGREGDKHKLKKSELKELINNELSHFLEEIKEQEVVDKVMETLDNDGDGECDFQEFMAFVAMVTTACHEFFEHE
Chain of RAGE V-domain V-domain (Homo sapiens) (Q15109 23-116): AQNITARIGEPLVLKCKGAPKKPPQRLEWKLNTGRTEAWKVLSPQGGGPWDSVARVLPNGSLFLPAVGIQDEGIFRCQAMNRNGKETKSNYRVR

Kd: 500 nM
Substance: S100B (from UniProt P04271)
